In EP0251446B1, “Non-human Carbonyl hydrolase mutants, DNA sequences and vectors encoding same and hosts transformed with said vectors” (GENENCOR INTERNATIONAL, INC., priority 1986, dated 1988):
Where a chain is given by its changes, count along the chain named. Numbers in names are those of the source.

Experiments:
Format in all cases: biochemical, B. amyloliquefaciens
[1] = substrate: C[C@H](NC(=O)CCC(=O)O)C(=O)N[C@@H](C)C(=O)N1CCC[C@H]1C(=O)N[C@@H](CCCCN)C(=O)Nc1ccc([N+](=O)[O-])cc1; assay: Kinetics of p-nitroanilide substrate hydrolysis, Q156/K166; conditions: other: Table XIV, 156 Gln / 166 Lys; value in parentheses; synthetic substrate with label as P-1 amino acid
Description: (§1) Wild-type subtilisin was purified from B. subtilis culture supernatants expressing the B. amyloliquefaciens subtilisin gene (Wells, J.A., et al. (1983) Nucleic Acids Res. 11, 7911-7925) as previously described (Estell, D.A., et al. (1985) J. Biol. Chem. 260, 6518-6521). Details of the synthesis of tetrapeptide substrates having the form succinyl-L-AlaL-AlaL-ProL-[X]-p-nitroanilide (where X is the P1 amino acid) are described by DelMar, E.G., et al. (1979) Anal. Biochem. 99, 316-320. Kinetic parameters, Km(M) and kcat-(s-^1) were measured using a modified progress curve analysis (Estell, D.A., et al. (1985) J. Biol. Chem. 260, 6518-6521). Briefly, plots of rate versus product concentration were fit to the differential form of the rate equation using a non-linear regression algorithm. Errors in kcat and Km for all values reported are less than five percent. The various substrates in Table VIII are ranged in order of decreasing hydrophobicity. Nozaki, Y. (1971), J. Biol. Chem. 246, 2211-2217; Tanford C. (1978) Science 200, 1012).
(§2) The multiple mutants were produced by combining fragments 1, 2 and 3 as described in Example 8. The mutants Q156/K166 and S156/K166 were selectively generated by differential phosphorylation as described. Alternatively, the double 156/166 mutants, c.f. Q156/K166 and S156/K166, were prepared by ligation of the 4.6kb Sacl-BamHI fragment from the relevant p156 plasmid containing the 0.6kb Sacl-BamHI fragment from the relevant p166 plasmid.
(§3) These mutants, the single mutant K166, and the S156 and Q156 mutants of Example 8 were analyzed for substitute specificity against synthetic polypeptides containing Phe or Glu as the P-1 substrate residue.
(§4) To isolate the contribution of electrostatics to substrate specificity from other chemical binding forces, these various single and double mutants were analyzed for their ability to bind and cleave synthetic substrates containing Glu, Gln, Met and Lys as the P-1 substrate amino acid. This permitted comparisons between side-chains that were more sterically similar but differed in charge (e.g., Glu versus Gln, Lys versus Met). Similarly, mutant enzymes were assayed against homologous P-1 substrates that were most sterically similar but differed in charge (Table XIV).

[2] = substrate: C[C@H](NC(=O)CCC(=O)O)C(=O)N[C@@H](C)C(=O)N1CCC[C@H]1C(=O)N[C@@H](Cc1ccccc1)C(=O)Nc1ccc([N+](=O)[O-])cc1; assay: as above; conditions: other: Table XIII, Q156/K166; synthetic substrate with label as P-1 residue
Description: as §1, §2, §3, §4

[3] = substrate: C[C@H](NC(=O)CCC(=O)O)C(=O)N[C@@H](C)C(=O)N1CCC[C@H]1C(=O)N[C@@H](CCC(=O)O)C(=O)Nc1ccc([N+](=O)[O-])cc1; assay: as above
Description: as §1, §2, §3, §4

[4] = substrate: CSCC[C@H](NC(=O)[C@@H]1CCCN1C(=O)[C@H](C)NC(=O)[C@H](C)NC(=O)CCC(=O)O)C(=O)Nc1ccc([N+](=O)[O-])cc1; assay: as above; conditions: other: Table XIV, 156 Gln / 166 Lys; value in parentheses; synthetic substrate with label as P-1 amino acid
Description: as §1, §2, §3, §4

[5] = substrate: C[C@H](NC(=O)CCC(=O)O)C(=O)N[C@@H](C)C(=O)N1CCC[C@H]1C(=O)N[C@@H](CCC(N)=O)C(=O)Nc1ccc([N+](=O)[O-])cc1; assay: as above; conditions: other: Table XIV, 156 Gln / 166 Lys; value in parentheses; synthetic substrate with label as P-1 amino acid
Description: as §1, §2, §3, §4

[6] = substrate: C[C@H](NC(=O)CCC(=O)O)C(=O)N[C@@H](C)C(=O)N1CCC[C@H]1C(=O)N[C@@H](CCCCN)C(=O)Nc1ccc([N+](=O)[O-])cc1; assay: Kinetics of p-nitroanilide substrate hydrolysis, D166; conditions: other: Table XIV, 156 Glu / 166 Asp; value in parentheses; synthetic substrate with label as P-1 amino acid
Description: as §1
(§5) The construction of subtilisin mutants containing the substitution of the ionic amino acids Asp, Asn, Gln, Lys and Ang are disclosed in EPO Publication No. 0130756. The present example describes the construction of the mutant subtilisin containing Glu at position 166 (E166) and presents substrate specificity data on these mutants. Further data on position 166 and 156 single and double mutants is presented infra.
(§6) Each of these mutants was analyzed with the tetrapeptide substrates, succinyl-L-AlaL-AlaProL-X-p-nitroanilide, where X was Phe, Ala and Glu.

[7] = substrate: CSCC[C@H](NC(=O)[C@@H]1CCCN1C(=O)[C@H](C)NC(=O)[C@H](C)NC(=O)CCC(=O)O)C(=O)Nc1ccc([N+](=O)[O-])cc1; assay: as above; conditions: other: Table XIV, 156 Glu / 166 Asp; value in parentheses; synthetic substrate with label as P-1 amino acid
Description: as §1, §5, §6

[8] = substrate: C[C@H](NC(=O)CCC(=O)O)C(=O)N[C@@H](C)C(=O)N1CCC[C@H]1C(=O)N[C@@H](CCC(N)=O)C(=O)Nc1ccc([N+](=O)[O-])cc1; assay: as above; conditions: other: Table XIV, 156 Glu / 166 Asp; value in parentheses; synthetic substrate with label as P-1 amino acid
Description: as §1, §5, §6

[9] = substrate: C[C@H](NC(=O)CCC(=O)O)C(=O)N[C@@H](C)C(=O)N1CCC[C@H]1C(=O)N[C@@H](CCCCN)C(=O)Nc1ccc([N+](=O)[O-])cc1; assay: Kinetics of p-nitroanilide substrate hydrolysis, N166; conditions: other: Table XIV, 156 Glu / 166 Asn; value in parentheses; synthetic substrate with label as P-1 amino acid
Description: as §1, §5, §6

[10] = substrate: C[C@H](NC(=O)CCC(=O)O)C(=O)N[C@@H](C)C(=O)N1CCC[C@H]1C(=O)N[C@@H](CCC(=O)O)C(=O)Nc1ccc([N+](=O)[O-])cc1; assay: as above; conditions: other: Table XIV, 156 Glu / 166 Asn; value in parentheses; synthetic substrate with label as P-1 amino acid
Description: as §1, §5, §6

[11] = substrate: CSCC[C@H](NC(=O)[C@@H]1CCCN1C(=O)[C@H](C)NC(=O)[C@H](C)NC(=O)CCC(=O)O)C(=O)Nc1ccc([N+](=O)[O-])cc1; assay: as above; conditions: other: Table XIV, 156 Glu / 166 Asn; value in parentheses; synthetic substrate with label as P-1 amino acid
Description: as §1, §5, §6

[12] = substrate: C[C@H](NC(=O)CCC(=O)O)C(=O)N[C@@H](C)C(=O)N1CCC[C@H]1C(=O)N[C@@H](CCC(N)=O)C(=O)Nc1ccc([N+](=O)[O-])cc1; assay: as above; conditions: other: Table XIV, 156 Glu / 166 Asn; value in parentheses; synthetic substrate with label as P-1 amino acid
Description: as §1, §5, §6

[13] = other: Table XIII, Q156/K166, synthetic substrate with label as P-1 residue

B1: B. amyloliquefaciens subtilisin variant Q156/K166 (Bacillus amyloliquefaciens; E263Q/G273K) (protein)
chain: AQSVPYGVSQIKAPALHSQGYTGSNVKVAVIDSGIDSSHPDLKVAGGASMVPSETNPFQDNNSHGTHVAGTVAALNNSIGVLGVAPSASLYAVKVLGADGSGQYSWIINGIEWAIANNMDVINMSLGGPSGSAALKAAVDKAVASGVVVVAAAGNQGTSGSSSTVKYPGKYPSVIAVGAVDSSNQRASFSSVGPELDVMAPGVSIQSTLPGNKYGAYNGTSMASPHVAGAAALILSKHPNWTNTQVRSSLENTTTKLGDSFYYGKGLINVQAAAQ
notes: at various amino acid residues within the mature form of the subtilisin molecule; made in house
Km [1]: 1780 µM
Km [2]: 19 µM
kcat [2]: 30.00 s-^1
kcat/Km [2]: 1.6e+06 M⁻¹ s⁻¹
Km [3, 13]: 31 µM
kcat [3, 13]: 1.60 s-^1
kcat/Km [3, 13]: 50000 M⁻¹ s⁻¹
Km ([3]; other: Table XIV, 156 Gln / 166 Lys, value in parentheses, synthetic substrate with label as P-1 amino acid): 31.6 µM
Km [4]: 20.9 µM
Km [5]: 209 µM

B2: B. amyloliquefaciens subtilisin variant D166 (Gly166 to Asp) (Bacillus amyloliquefaciens; G273D) (protein)
chain: B1 chain with Q156E, K166D
notes: at various amino acid residues within the mature form of the subtilisin molecule; made in house; host or cells: Bacillus subtilis BG2036
Km [6]: 1000 µM
Km [7]: 1820 µM
Km [8]: 2750 µM

B3: B. amyloliquefaciens subtilisin variant N166 (Gly166 to Asn) (Bacillus amyloliquefaciens; G273N) (protein)
chain: B1 chain with Q156E, K166N
notes: as for B2
Km [9]: 1320 µM
Km [10]: 6.03 mM
Km [11]: 141 µM
Km [12]: 724 µM
